One substance from patent publication US20210381026A1 can be followed below.

This test concerns the target GFP [GFP: P42212]. The test can be described thus: sandwich cD-IPCR: GFP in buffer captured by anti-GFP pAb on plate, bound cDNA display quantified by qPCR (ΔCt).

Sequence of cDNA display presenting anti-GFP VHH (LaG-16) (VHH): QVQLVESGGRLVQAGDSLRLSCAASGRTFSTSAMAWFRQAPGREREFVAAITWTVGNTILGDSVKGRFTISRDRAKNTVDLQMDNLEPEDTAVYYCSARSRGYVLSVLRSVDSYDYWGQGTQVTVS

Substance “cDNA display presenting anti-GFP VHH (LaG-16)” showed a lowest detected GFP concentration (sandwich cD-IPCR) of 10 ng/mL.
